Assay results taken from patent US7384773.

Molecular target: recombinant soluble human beta secretase expressed in CHO-K1 cells (Hu_Asp-2LΔTM(His)6), not treated with HIV protease (UniProt P56817)

For HIV-1 protease, the “cleavage of the F39-V40 bond (N-terminal sequence analysis)” value was “nearly 100% cleavage of the F^39-V^40 bond occurred”.
